Experimental data reported in article PMC6768651, “A ubiquitin-like domain controls protein kinase D dimerization and activation by trans-autophosphorylation” (The Journal of Biological Chemistry, 2019).

B1: DKF-1 ULD–C1a (DKF-1^1–151) [C. elegans] / itself (parent)
chain: MDGSQGSTDYGDHVVLRYGGTREMVPLIRHEQMLDMLMERARQIVQGFGNLDTRNMYLFRHEYNSPTLLYPITSASQITSGSILEIILVDRTEAAVIPHVVEPESYMRPTFCDFCGEMLTGLMRQGVKCKNCNGNFHKRCSNAARNNCGAP
B2: DKF-1 ULD (DKF-1^1–94) [C. elegans] / itself (parent)
chain: MDGSQGSTDYGDHVVLRYGGTREMVPLIRHEQMLDMLMERARQIVQGFGNLDTRNMYLFRHEYNSPTLLYPITSASQITSGSILEIILVDRTEA

Key:
Assay in all cases: SEC-MALS (static light scattering)
Settings in all cases: with itself
[1] = variants of: B1
[2] = variants of: B1; remark: listed apart in the source
[3] = variants of: B2; remark: listed apart in the source
[4] = variants of: B2; remark: listed apart in the source

Row | screen value [1] | screen value [2] | screen value [3] | screen value [4] | Variant
1 | 1.09 | 18.7 kDa |  |  | chain 1 F59E
2 |  |  | 1.04 | 11.3 kDa | chain 1 F59E
